Several values for one entry are separate records, joined by “and”; a condition that tells them apart may be missing. Identical values can stand only once.
Molecular target: the molecule itself
Test: SEC; FPLC on HiPrep 26/60 Sephacryl S-300 HR after Ni-NTA purification; 100 mM Tris-HCl pH 8.0, 150 mM NaCl; sizes estimated from a standard curve with the Bio-Rad Gel Filtration Standard; His-SUMO tag kept

Row | Protein | stoichiometry N
1 | SUMO-AtIBR5 (N-terminal 6X His-tagged SUMO fused to the 257-amino acid-long Arabidopsis thaliana indole-3-butyric acid response 5) (enzyme, UniProt Q84JU4 1-257, looked up, AtIBR5, dual-specificity phosphatase, Arabidopsis thaliana, UniProt Q84JU4, AT2G04550; One glycine residue (codon GGU) stands as a linker between the 6X His-SUMO tag and AtIBR5; Cloned with the Expresso T7 SUMO system (pETite N-His SUMO Kan vector); Expected monomer about 42 kDa; also called SUMO-AtIBR5 wild-type protein; source: E. coli BL21 HiControl, purified (Ni-NTA, SEC); not shown: His6, …) MRKRERENPCSICGHYHKYEEGEVCGVCGHCMPVSSDTVAPQQVHVSAFPSEILPEFLYLGSYDNASRSELLKTQGISRVLNTVPMCQNLYRNSFTYHGLDNEKVLQFDDAIKFLDQCEKDKARVLVHCMSGKSRSPAVVVAYLMKRKGWRLAESHQWVKQRRPSTDISPEFYQQLQEFEQGIFGSEMMSAMNINDAPTFGFGFPKIDNQAQAPVFNNAPTSSIFSSPASSIPPQEFTFGATPPKPTTGGDIAMDGS | 4 and 2
2 | SUMO-AtIBR5-p (N-terminal 6x His-SUMO tag fused to aa 48-257 of AtIBR5, only the DSP_plant_IBR5-like domain) (domain or fragment, Arabidopsis thaliana, UniProt Q84JU4 48-257, looked up, One glycine residue stands as a linker between the 6x His-SUMO tag and the AtIBR5 stretch; also called N-terminally truncated AtIBR5; source: E. coli BL21 HiControl, purified (Ni-NTA, SEC); not shown: His6, N-terminal, kept; SUMO, N-terminal, kept) AFPSEILPEFLYLGSYDNASRSELLKTQGISRVLNTVPMCQNLYRNSFTYHGLDNEKVLQFDDAIKFLDQCEKDKARVLVHCMSGKSRSPAVVVAYLMKRKGWRLAESHQWVKQRRPSTDISPEFYQQLQEFEQGIFGSEMMSAMNINDAPTFGFGFPKIDNQAQAPVFNNAPTSSIFSSPASSIPPQEFTFGATPPKPTTGGDIAMDGS | 2 and 4
3 | SUMO-AtIBR5-q (quadruple mutant of SUMO-AtIBR5, all four conserved cysteine residues substituted with glycine) (enzyme, Arabidopsis thaliana, UniProt Q84JU4 1-257, looked up, One glycine residue stands as a linker between the 6x His-SUMO tag and AtIBR5; also called quadruple AtIBR5 mutant; C10G C13G C25G C28G; source: E. coli BL21 HiControl, purified (Ni-NTA, SEC); not shown: His6, N-terminal, kept; SUMO, N-terminal, kept) MRKRERENPGSIGGHYHKYEEGEVGGVGGHCMPVSSDTVAPQQVHVSAFPSEILPEFLYLGSYDNASRSELLKTQGISRVLNTVPMCQNLYRNSFTYHGLDNEKVLQFDDAIKFLDQCEKDKARVLVHCMSGKSRSPAVVVAYLMKRKGWRLAESHQWVKQRRPSTDISPEFYQQLQEFEQGIFGSEMMSAMNINDAPTFGFGFPKIDNQAQAPVFNNAPTSSIFSSPASSIPPQEFTFGATPPKPTTGGDIAMDGS | 2 and 4

Reference: publication PMC12525521, “N-Terminal Metal-Binding Domain of Arabidopsis IBR5 Is Important for Its in Planta Functions” (International Journal of Molecular Sciences, 2025)
